Assay results from publication PMC5770421 (2018).

Experiments:
Test in all cases: BLI
[1] = target: T1, H4K5ac (Saccharomyces cerevisiae, acetyl-Lys5 (mature numbering; K6 in UniProt); biotinylated. Limits 1-21 from the pull-down methods; the BLItz peptide is 1-20. Peptide species not given; a commercial vertebrate peptide would have …)
[2] = target: T2, H4K8ac (Saccharomyces cerevisiae, acetyl-Lys8 (mature numbering; K9 in UniProt); biotinylated. Limits 1-21 from the pull-down methods; the BLItz peptide is 1-20. Peptide species not given; a commercial vertebrate peptide would have …)
[3] = target: T3, H4K12ac (Saccharomyces cerevisiae, acetyl-Lys12 (mature numbering; K13 in UniProt); biotinylated. Limits 1-21 from the pull-down methods; the BLItz peptide is 1-20. Peptide species not given; a commercial vertebrate peptide would …)
[4] = target: T1, H4K5ac; remark: listed apart in the source
[5] = target: T2, H4K8ac; remark: listed apart in the source
[6] = target: T3, H4K12ac; remark: listed apart in the source

T3 sequence (main, as listed by the source): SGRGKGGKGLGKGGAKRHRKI

B1: Dot1p (disruptor of telomeric silencing-1), MBP tag removed (enzyme)
chain: MGGQESISNNNSDSFIMSSPNLDSQESSISPIDEKKGTDMQTKSLSSYSKGTLLSKQVQNLLEEANKYDPIYGSSLPRGFLRDRNTKGKDNGLVPLVEKVIPPIHKKTNNRNTRKKSSTTTKKDVKKPKAAKVKGKNGRTNHKHTPISKQEIDTAREKKPLKKGRANKKNDRDSPSSTFVDWNGPCLRLQYPLFDIEYLRSHEIYSGTPIQSISLRTNSPQPTSLTSDNDTSSVTTAKLQSILFSNYMEEYKVDFKRSTAIYNPMSEIGKLIEYSCLVFLPSPYAEQLKETILPDLNASFDNSDTKGFVNAINLYNKMIREIPRQRIIDHLETIDKIPRSFIHDFLHIVYTRSIHPQANKLKHYKAFSNYVYGELLPNFLSDVYQQCQLKKGDTFMDLGSGVGNCVVQAALECGCALSFGCEIMDDASDLTILQYEELKKRCKLYGMRLNNVEFSLKKSFVDNNRVAELIPQCDVILVNNFLFDEDLNKKVEKILQTAKVGCKIISLKSLRSLTYQINFYNVENIFNRLKVQRYDLKEDSVSWTHSGGEYYISTVMEDVDESLFSPAARGRRNRGTPVKYTR
Kd [1]: 20.1 nM
Kd [2]: 19.6 nM
Kd [3]: 23.3 nM
koff [4]: 0.00317 s⁻¹
koff [5]: 0.00237 s⁻¹
koff [6]: 0.00302 s⁻¹
